Columns and labels:
HeLa Kyoto [1] = assay: solubility in G1/S (NP-40 vs SDS abundance) (log2 ratio); higher = more soluble; details: cell cycle stage: G1/S
HeLa Kyoto [2] = assay: melting temperature (median over replicates), in situ; higher = more thermally stable
HeLa Kyoto [3] = assay: solubility change mitosis vs G1/S (difference of NP-40 vs SDS log2 ratios) (log2 ratio difference); higher = more soluble in mitosis
HeLa Kyoto [4] = assay: thermal stability score vs G1/S (z-score of summed log2 fold changes over temperatures); higher = more thermally stable than in G1/S
[5] = cell cycle stage: early G1 (4.5 h after nocodazole release)
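For melting temperature (median over replicates), in situ in this document: HeLa Kyoto cells synchronized by double thymidine or nocodazole block, proteins quantified by TMT10plex mass spectrometry, three independent biological replicates.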
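For solubility change mitosis vs G1/S (difference of NP-40 vs SDS log2 ratios) in this document: synchronized HeLa Kyoto cells (double thymidine block for G1/S, nocodazole release for mitosis), protein amounts in NP-40 versus SDS lysates quantified by mass spectrometry, three biological replicates.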
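For solubility in G1/S (NP-40 vs SDS abundance) in this document: HeLa Kyoto cells arrested at G1/S by double thymidine block, proteins quantified by TMT10plex mass spectrometry in mild NP-40 versus SDS extracts, three biological replicates.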
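For thermal stability score vs G1/S (z-score of summed log2 fold changes over temperatures) in this document: synchronized HeLa Kyoto cells, proteins quantified by TMT10plex mass spectrometry, three biological replicates, mitosis taken 0.5 h after nocodazole release, G1/S directly after double thymidine block.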

Row | Sequence | solubility in G1/S (log2) (HeLa Kyoto [1]) | melting temperature (HeLa Kyoto [2]; cell cycle stage: G1/S) [°C] | melting temperature (HeLa Kyoto [2]; cell cycle stage: mitosis) [°C] | solubility change mitosis (log2) (HeLa Kyoto [3]) | thermal stability score (HeLa Kyoto [4]; [5]) | thermal stability score (HeLa Kyoto [4]; cell cycle stage: mitosis)
1 | MSLRKQTPSDFLKQIIGRPVVVKLNSGVDYRGVLACLDGYMNIALEQTEEYVNGQLKNKYGDAFIRGNNVLYISTQKRRM [LSM6] | 0.0787 | 57.7 | 54 | 0.276 | -1.66 | -2.63
2 | MSLSENSVFAYESSVHSTNVLLSLNDQRKKDVLCDVTIFVEGQRFRAHRSVLAACSSYFHSRIVGQADGELNITLPEEVTVKGFEPLIQFAYTAKLILSKENVDEVCKCVEFLSVHNIEESCFQFLKFKFLDSTADQQECPRKKCFSSHCQKTDLKLSLLDQRDLETDEVEEFLENKNVQTPQCKLRRYQGNAKASPPLQDSASQTYESMCLEKDAALALPSLCPKYRKFQKAFGTDRVRTGESSVKDIHASVQPNERSENECLGGVPECRDLQVMLKCDESKLAMEPEETKKDPASQCPTEKSEVTPFPHNSSIDPHGLYSLSLLHTYDQYGDLNFAGMQNTTVLTEKPLSGTDVQEKTFGESQDLPLKSDLGTREDSSVASSDRSSVEREVAEHLAKGFWSDICSTDTPCQMQLSPAVAKDGSEQISQKRSECPWLGIRISESPEPGQRTFTTLSSVNCPFISTLSTEGCSSNLEIGNDDYVSEPQQEPCPYACVISLGDDSETDTEGDSESCSAREQECEVKLPFNAQRIISLSRNDFQSLLKMHKLTPEQLDCIHDIRRRSKNRIAAQRCRKRKLDCIQNLESEIEKLQSEKESLLKERDHILSTLGETKQNLTGLCQKVCKEAALSQEQIQILAKYSAADCPLSFLISEKDKSTPDGELALPSIFSLSDRPPAVLPPCARGNSEPGYARGQESQQMSTATSEQAGPAEQCRQSGGISDFCQQMTDKCTTDE [BACH1] | -0.0438 | 53.6 | 53.1 | 0.0971 | -0.135 | -2.84
3 | MSLSRSEEMHRLTENVYKTIMEQFNPSLRNFIAMGKNYEKALAGVTYAAKGYFDALVKMGELASESQGSKELGDVLFQMAEVHRQIQNQLEEMLKSFHNELLTQLEQKVELDSRYLSAALKKYQTEQRSKGDALDKCQAELKKLRKKSQGSKNPQKYSDKELQYIDAISNKQGELENYVSDGYKTALTEERRRFCFLVEKQCAVAKNSAAYHSKGKELLAQKLPLWQQACADPSKIPERAVQLMQQVASNGATLPSALSASKSNLVISDPIPGAKPLPVPPELAPFVGRMSAQESTPIMNGVTGPDGEDYSPWADRKAAQPKSLSPPQSQSKLSDSYSNTLPVRKSVTPKNSYATTENKTLPRSSSMAAGLERNGRMRVKAIFSHAAGDNSTLLSFKEGDLITLLVPEARDGWHYGESEKTKMRGWFPFSYTRVLDSDGSDRLHMSLQQGKSSSTGNLLDKDDLAIPPPDYGAASRAFPAQTASGFKQRPYSVAVPAFSQGLDDYGARSMSRNPFAHVQLKPTVTNDRCDLSAQGPEGREHGDGSARTLAGR [BAIAP2] | 0.466 | 50.6 | 51.2 | 0.0657 | 0.524 | 0.515
4 | MSLWGLVSKMPPEKVQRLYVDFPQHLRHLLGDWLESQPWEFLVGSDAFCCNLASALLSDTVQHLQASVGEQGEGSTILQHISTLESIYQRDPLKLVATFRQILQGEKKAVMEQFRHLPMPFHWKQEELKFKTGLRRLQHRVGEIHLLREALQKGAEAGQVSLHSLIETPANGTGPSEALAMLLQETTGELEAAKALVLKRIQIWKRQQQLAGNGAPFEESLAPLQERCESLVDIYSQLQQEVGAAGGELEPKTRASLTGRLDEVLRTLVTSCFLVEKQPPQVLKTQTKFQAGVRFLLGLRFLGAPAKPPLVRADMVTEKQARELSVPQGPGAGAESTGEIINNTVPLENSIPGNCCSALFKNLLLKKIKRCERKGTESVTEEKCAVLFSASFTLGPGKLPIQLQALSLPLVVIVHGNQDNNAKATILWDNAFSEMDRVPFVVAERVPWEKMCETLNLKFMAEVGTNRGLLPEHFLFLAQKIFNDNSLSMEAFQHRSVSWSQFNKEILLGRGFTFWQWFDGVLDLTKRCLRSYWSDRLIIGFISKQYVTSLLLNEPDGTFLLRFSDSEIGGITIAHVIRGQDGSPQIENIQPFSAKDLSIRSLGDRIRDLAQLKNLYPKKPKDEAFRSHYKPEQMGKDGRGYVPATIKMTVERDQPLPTPELQMPTMVPSYDLGMAPDSSMSMQLGPDMVPQVYPPHSHSIPPYQGLSPEESVNVLSAFQEPHLQMPPSLGQMSLPFDQPHPQGLLPCQPQEHAVSSPDPLLCSDVTMVEDSCLSQPVTAFPQGTWIGEDIFPPLLPPTEQDLTKLLLEGQGESGGGSLGAQPLLQPSHYGQSGISMSHMDLRANPSW [STAT6] | 0.0515 | 48.4 | 49.6 | -0.111 | 0.798 | 2.24
5 | MSLYDDLGVETSDSKTEGWSKNFKLLQSQLQVKKAALTQAKSQRTKQSTVLAPVIDLKRGGSSDDRQIVDTPPHVAAGLKDPVPSGFSAGEVLIPLADEYDPMFPNDYEKVVKRQREERQRQRELERQKEIEEREKRRKDRHEASGFARRPDPDSDEDEDYERERRKRSMGGAAIAPPTSLVEKDKELPRDFPYEEDSRPRSQSSKAAIPPPVYEEQDRPRSPTGPSNSFLANMGGTVAHKIMQKYGFREGQGLGKHEQGLSTALSVEKTSKRGGKIIVGDATEKDASKKSDSNPLTEILKCPTKVVLLRNMVGAGEVDEDLEVETKEECEKYGKVGKCVIFEIPGAPDDEAVRIFLEFERVESAIKAVVDLNGRYFGGRVVKACFYNLDKFRVLDLAEQV [RBM17] | -0.32 | 48.3 | 49.3 | 0.318 | 0.948 | 4.62
6 | MSLYPSLEDLKVDKVIQAQTAFSANPANPAILSEASAPIPHDGNLYPRLYPELSQYMGLSLNEEEIRANVAVVSGAPLQGQLVARPSSINYMVAPVTGNDVGIRRAEIKQGIREVILCKDQDGKIGLRLKSIDNGIFVQLVQANSPASLVGLRFGDQVLQINGENCAGWSSDKAHKVLKQAFGEKITMTIRDRPFERTITMHKDSTGHVGFIFKNGKITSIVKDSSAARNGLLTEHNICEINGQNVIGLKDSQIADILSTSGTVVTITIMPAFIFEHIIKRMAPSIMKSLMDHTIPEV [SDCBP] | 0.00564 | 52.6 | 51.4 | -0.0317 | -1.02 | -6.31
7 | MSNKEGSGGFRKRKHDNFPHNQRREGKDVNSSSPVMLAFKSFQQELDARHDKYERLVKLSRDITVESKRTIFLLHRITSAPDMEDILTESEIKLDGVRQKIFQVAQELSGEDMHQFHRAITTGLQEYVEAVSFQHFIKTRSLISMDEINKQLIFTTEDNGKENKTPSSDAQDKQFGTWRLRVTPVDYLLGVADLTGELMRMCINSVGNGDIDTPFEVSQFLRQVYDGFSFIGNTGPYEVSKKLYTLKQSLAKVENACYALKVRGSEIPKHMLADVFSVKTEMIDQEEGIS [TSNAX] | 0.379 | 54.7 | 56.3 | -0.0987 | -0.435 | -1.45
8 | MSNMEKHLFNLKFAAKELSRSAKKCDKEEKAEKAKIKKAIQKGNMEVARIHAENAIRQKNQAVNFLRMSARVDAVAARVQTAVTMGKVTKSMAGVVKSMDATLKTMNLEKISALMDKFEHQFETLDVQTQQMEDTMSSTTTLTTPQNQVDMLLQEMADEAGLDLNMELPQGQTGSVGTSVASAEQDELSQRLARLRDQV [CHMP1B] | 0.304 | 51.8 | 52.2 | 0.158 | 0.0467 | -0.997
9 | MSNPFAHLAEPLDPVQPGKKFFNLNKLEDSRYGRLPFSIRVLLEAAIRNCDEFLVKKQDIENILHWNVTQHKNIEVPFKPARVILQDFTGVPAVVDFAAMRDAVKKLGGDPEKINPVCPADLVIDHSIQVDFNRRADSLQKNQDLEFERNRERFEFLKWGSQAFHNMRIIPPGSGIIHQVNLEYLARVVFDQDGYYYPDSLVGTDSHTTMIDGLGILGWGVGGIEAEAVMLGQPISMVLPQVIGYRLMGKPHPLVTSTDIVLTITKHLRQVGVVGKFVEFFGPGVAQLSIADRATIANMCPEYGATAAFFPVDEVSITYLVQTGRDEEKLKYIKKYLQAVGMFRDFNDPSQDPDFTQVVELDLKTVVPCCSGPKRPQDKVAVSDMKKDFESCLGAKQGFKGFQVAPEHHNDHKTFIYDNTEFTLAHGSVVIAAITSCTNTSNPSVMLGAGLLAKKAVDAGLNVMPYIKTSLSPGSGVVTYYLQESGVMPYLSQLGFDVVGYGCMTCIGNSGPLPEPVVEAITQGDLVAVGVLSGNRNFEGRVHPNTRANYLASPPLVIAYAIAGTIRIDFEKEPLGVNAKGQQVFLKDIWPTRDEIQAVERQYVIPGMFKEVYQKIETVNESWNALATPSDKLFFWNSKSTYIKSPPFFENLTLDLQPPKSIVDAYVLLNLGDSVTTDHISPAGNIARNSPAARYLTNRGLTPREFNSYGSRRGNDAVMARGTFANIRLLNRFLNKQAPQTIHLPSGEILDVFDAAERYQQAGLPLIVLAGKEYGAGSSRDWAAKGPFLLGIKAVLAESYERIHRSNLVGMGVIPLEYLPGENADALGLTGQERYTIIIPENLKPQMKVQVKLDTGKTFQAVMRFDTDVELTYFLNGGILNYMIRKMAK [ACO1] | -0.0477 | 54 | 53.1 | -0.178 | -1.5 | -0.466

From the supplement of paper PMC5998384
